Laboratory results published in patent US20210045419A1 (UNIVERSITY OF MANITOBA, published 2021).

Molecular target: T1, bitter taste receptor T2R4 (UniProt Q9NYW5 1-299, limits assumed)
T1 sequence (looked up): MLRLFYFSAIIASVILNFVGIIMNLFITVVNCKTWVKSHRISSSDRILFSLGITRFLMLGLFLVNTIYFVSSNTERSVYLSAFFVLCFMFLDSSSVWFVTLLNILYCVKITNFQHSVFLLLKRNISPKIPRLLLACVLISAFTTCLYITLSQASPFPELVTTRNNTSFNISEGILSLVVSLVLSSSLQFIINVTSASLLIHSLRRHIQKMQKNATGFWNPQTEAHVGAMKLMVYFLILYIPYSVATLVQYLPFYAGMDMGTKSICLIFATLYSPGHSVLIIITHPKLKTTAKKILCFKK
Experiment: cell-based or functional assay

B1: AGDDAPRAVF (SEQ ID No:5) (peptide)
peptide: AGDDAPRAVF
Question: With B1 as the binder, how does the “IC50, peptide and quinine (1 mM) competition calcium mobilization assay on T2R4-expressing HEK293T cells” value read?
Answer: 85 µM
